Literature values in patent US7101894B2 (priority 2001, dated 2006).

Target: CMV US28 (Human cytomegalovirus, UniProt P69332)
Conditions: binding of Fractalkine to US28

Sequence of CMV US28 (P69332 whole entry): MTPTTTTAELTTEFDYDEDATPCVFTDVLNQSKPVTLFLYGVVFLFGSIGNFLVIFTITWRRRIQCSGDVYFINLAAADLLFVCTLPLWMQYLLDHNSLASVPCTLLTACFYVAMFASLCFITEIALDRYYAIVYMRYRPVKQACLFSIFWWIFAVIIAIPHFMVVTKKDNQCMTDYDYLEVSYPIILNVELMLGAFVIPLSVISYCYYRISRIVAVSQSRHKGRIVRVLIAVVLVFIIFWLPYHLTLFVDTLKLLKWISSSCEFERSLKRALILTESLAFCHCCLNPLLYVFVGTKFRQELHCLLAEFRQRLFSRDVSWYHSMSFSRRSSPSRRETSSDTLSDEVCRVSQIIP

B1: Fractalkine: the CX3C chemokine, binds US28; used 125I-labeled as radioligand (protein, UniProt P78423 25-397, looked up)
Fractalkine: QHHGVTKCNITCSKMTSKIPVALLIHYQQNQASCGKRAIILETRQHRLFCADPKEQWVKDAMQHLDRQAAALTRNGGTFEKQIGEVKPRTTPAAGGMDESVVLEPEATGESSSLEPTPSSQEAQRALGTSPELPTGVTGSSGTRLPPTPKAQDGGPVGTELFRVPPVSTAATWQSSAPHQPGPSLWAEAKTSEAPSTQDPSTQASTASSPAPEENAPSEGQRVWGQGQSPRPENSLEREEMGPVPAHTDAFQDWGPGSMAHVSVVPVSSEGTPSREPVASGSWTPKAEEPIHATMDPQRLGVLITPVPDAQAATRRQAVGLLAFLGLLFCLGVAMFTYQSLQGCPRKMAGEMAEGLRYIPRSCGSNSYVLVPV
modifications: 125I label
notes: used 125I-labeled as radioligand
  Ki: ~0.05 nM
